The series deals with the molecule itself. The series is described as follows: co-sedimentation; pelleting assay; each protein at 1 µM in polymerization buffer (10 mM Tris-HCl pH 7.5, 25 mM KCl, 2 mM MgCl2, 1 mM DTT) with 1 mM ATP, 25°C for 10 min, 100,000 x g for 30 min at 4°C; SDS-PAGE of pellet and supernatant.

B1: MamK (untagged recombinant) (natural protein, Magnetospirillum magneticum AMB-1, UniProt Q2W8Q6 1-347, looked up)
chain: MSEGEGQAKNRLFLGIDLGTSHTAVMSSRGKKFLLKSVVGYPKDVIGLKLLGRPYVVGDEAFEMRSYLDIRYPLQDGVLSEISDRDIEVARHLLTHVVKSAEPGPNDEICAVIGVPARASAANKALLLKMAQEVVHTALVVSEPFMVGYGLDKLINTIIVDIGAGTTDICALKGTVPGPEDQVTLTKAGNYVDERLQNAILERHPELQMNVNVACAVKEQFSFVGTPTEVASFEFRAAGKPVRADVTEPVKIACEALMPDIIESIETLLRSFQPEYQATVLQNIVFAGGGSRIRGLAAYVKEKLRPFGDANVTCVKDPTFDGCRGALRLAEELPPQYWRQLGDVSGS
notes: MamK, bacterial actin-like protein of Magnetospirillum magneticum AMB-1; untagged; printed as 37.6 kDa; monomeric fractions were pooled; it forms filaments with ATP in polymerization buffer; also called purified MamK; MamK filaments; source: E. coli BL21, purified (ammonium sulfate precipitation, anion exchange, gel filtration)
Consider B1, for which the binding result is “binds”.
